Source: patent EP4509522A1

Biological target: human recombinant TGFβ1 (Peprotech) (human) (UniProt P01137)
Test: cell-based or functional assay

human recombinant TGFβ1 (Peprotech) (human), sequence (P01137 279-390 limits assumed): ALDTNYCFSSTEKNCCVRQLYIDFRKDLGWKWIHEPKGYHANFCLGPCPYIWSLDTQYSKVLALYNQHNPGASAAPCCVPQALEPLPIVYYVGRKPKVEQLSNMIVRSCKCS

Substance: BM2, ectodomain of TGFβ receptor II (TGFβRII) with transmembrane and intracellular domains of CD137 (from UniProt P37173 23-166; Q07011 187-255)
- fold-change in IFNy secretion, sub-optimal aCD3/aCD28 beads (1:300) + 10 ng/ml TGFβ versus beads alone: 1.9 fold
- fold-change in IFNy secretion, αCD3/αCD28 beads (1:100) + 10 ng/ml TGFβ versus beads alone: 1.2 fold

Substance: BM3, truncated version of TGFβRII (from UniProt P37173 23-199) (receptor)
- fold-change in IFNy secretion, sub-optimal aCD3/aCD28 beads (1:300) + 10 ng/ml TGFβ versus beads alone: 0.7 fold
- fold-change in IFNy secretion, αCD3/αCD28 beads (1:100) + 10 ng/ml TGFβ versus beads alone: 0.87 fold
